We go through 91 sequences from the supplement of paper PMC9112550, “Optimization of the antimicrobial peptide Bac7 by deep mutational scanning” (BMC Biology, 2022).

This series concerns Escherichia coli TOP10. The experiment in a line: shrunken log2 fold change of peptide-encoding DNA abundance (4.5 h post-induction vs induction); higher = less antimicrobial activity (less host growth inhibition). The conditions noted are these: time post-induction: 4.5 h; library: site-saturation at positions 5, 18, 19, 20.
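Also: peptides expressed intracellularly from a pBAD plasmid library in pooled LB shake-flask culture, induced with 0.3% L-arabinose, DNA abundance read by NGS, three biological replicates, DESeq2 with apeglm shrinkage.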

Regarding RRIRGRPPRLPRPRPRPWWIPRP, the “shrunken log2 fold change” value stood at 0.0656.

Regarding RRIRPRPPRLPRPRPRPNYMPRP, the “shrunken log2 fold change” value was -0.737.

Regarding RRIRSRPPRLPRPRPRPQPAPRP, the “shrunken log2 fold change” value came out at 0.0373. For RRIRTRPPRLPRPRPRPMCAPRP the value was -0.0676; for RRIRERPPRLPRPRPRPIVPPRP, -0.25.

Take RRIRWRPPRLPRPRPRPMWKPRP: the “shrunken log2 fold change” value was -0.0109. On to RRIRVRPPRLPRPRPRPILGPRP, for which the “shrunken log2 fold change” value is 0.0313. On to RRIRHRPPRLPRPRPRPTAGPRP, for which the “shrunken log2 fold change” value was -0.0268.

With RRIRYRPPRLPRPRPRPACFPRP, the “shrunken log2 fold change” value was -0.166.

With RRIRFRPPRLPRPRPRPFDRPRP, the “shrunken log2 fold change” value was found to be 0.0332. For RRIRNRPPRLPRPRPRPMNCPRP the value was -0.57. For RRIRTRPPRLPRPRPRPCGCPRP the value was 0.0633; for RRIRWRPPRLPRPRPRPLSAPRP, 0.553.

Regarding RRIRLRPPRLPRPRPRPYGMPRP, the “shrunken log2 fold change” value was -0.0242. For RRIRCRPPRLPRPRPRPTMCPRP the value was -0.755; for RRIRIRPPRLPRPRPRPRYHPRP, -1.12; for RRIRMRPPRLPRPRPRPCYNPRP, -0.247. The result for RRIRTRPPRLPRPRPRPHPLPRP reads -0.503.

In the case of RRIRFRPPRLPRPRPRPCERPRP, the “shrunken log2 fold change” value is -0.141. The result for RRIRERPPRLPRPRPRPKMMPRP reads -0.153.

On to RRIRPRPPRLPRPRPRPCYKPRP, for which the “shrunken log2 fold change” value is -1.32. The result for RRIRERPPRLPRPRPRPAKNPRP reads -0.0998; that for RRIRQRPPRLPRPRPRPVNVPRP, 0.0398. RRIRERPPRLPRPRPRPRDKPRP: the “shrunken log2 fold change” value was -0.187. The result for RRIRKRPPRLPRPRPRPCEEPRP reads 0.56. For RRIRWRPPRLPRPRPRPQLFPRP the value was 0.0645; for RRIRNRPPRLPRPRPRPKDFPRP, -0.000911; for RRIRDRPPRLPRPRPRPQLHPRP, 0.267. The result for RRIRIRPPRLPRPRPRPPGNPRP reads -0.233. For the sequence RRIRIRPPRLPRPRPRPISVPRP, the “shrunken log2 fold change” value was 0.0153.

As for RRIRFRPPRLPRPRPRPHPQPRP, the “shrunken log2 fold change” value came out at 0.246.

Take RRIRVRPPRLPRPRPRPECIPRP: the “shrunken log2 fold change” value is -0.0283. The result for RRIRTRPPRLPRPRPRPCGVPRP reads -0.175; that for RRIRFRPPRLPRPRPRPDRAPRP, 0.131. The result for RRIRYRPPRLPRPRPRPPSEPRP reads -0.0723.

On to RRIRDRPPRLPRPRPRPTTCPRP, for which the “shrunken log2 fold change” value is 0.463. The result for RRIRIRPPRLPRPRPRPCIIPRP reads -0.467; that for RRIRTRPPRLPRPRPRPSFSPRP, -0.262; that for RRIRRRPPRLPRPRPRPWAVPRP, -0.00967. For RRIRHRPPRLPRPRPRPKNPPRP the value was -0.155. RRIRFRPPRLPRPRPRPNDRPRP: the “shrunken log2 fold change” value was -0.108. The result for RRIRGRPPRLPRPRPRPLYPPRP reads 0.162; that for RRIRPRPPRLPRPRPRPRWKPRP, 0.176; that for RRIRSRPPRLPRPRPRPSTTPRP, -0.433. The result for RRIRDRPPRLPRPRPRPEKLPRP reads 0.19; that for RRIRMRPPRLPRPRPRPYTRPRP, -0.013; that for RRIRQRPPRLPRPRPRPCEFPRP, -0.311. The result for RRIRHRPPRLPRPRPRPAEDPRP reads 0.262; that for RRIRARPPRLPRPRPRPCWMPRP, -0.102; that for RRIRHRPPRLPRPRPRPGPGPRP, 0.282. RRIRYRPPRLPRPRPRPYNYPRP: the “shrunken log2 fold change” value is -1.3.

As to RRIRWRPPRLPRPRPRPSEHPRP, the “shrunken log2 fold change” value was -0.0852. The result for RRIRNRPPRLPRPRPRPECHPRP reads -0.0505.

RRIRLRPPRLPRPRPRPRTHPRP: the “shrunken log2 fold change” value was 0.189. On to RRIRPRPPRLPRPRPRPQASPRP, for which the “shrunken log2 fold change” value was -0.137. For RRIRDRPPRLPRPRPRPHLGPRP the value was 0.0158. The result for RRIRMRPPRLPRPRPRPFLTPRP reads 0.0674; that for RRIRLRPPRLPRPRPRPECNPRP, -0.0178.

With RRIRSRPPRLPRPRPRPRHWPRP, the “shrunken log2 fold change” value worked out at 0.618. With RRIRRRPPRLPRPRPRPTYSPRP, the “shrunken log2 fold change” value was -0.116. For RRIRRRPPRLPRPRPRPSEHPRP the value was 0.453; for RRIRNRPPRLPRPRPRPVYEPRP, -0.027. As to RRIRARPPRLPRPRPRPMGEPRP, the “shrunken log2 fold change” value worked out at 0.1. The result for RRIRMRPPRLPRPRPRPGRDPRP reads 1.4. For RRIRFRPPRLPRPRPRPHDNPRP the value was -0.392. Consider RRIRLRPPRLPRPRPRPYLGPRP, for which the “shrunken log2 fold change” value was -0.425.

For the sequence RRIRERPPRLPRPRPRPGHKPRP, the “shrunken log2 fold change” value was -0.324.

RRIRYRPPRLPRPRPRPFCDPRP: the “shrunken log2 fold change” value is -0.208. The result for RRIRRRPPRLPRPRPRPWNKPRP reads 0.0897; that for RRIRQRPPRLPRPRPRPHLKPRP, -0.0175; that for RRIRVRPPRLPRPRPRPEDNPRP, -0.184. For RRIRMRPPRLPRPRPRPWRCPRP the value was 0.0452; for RRIRQRPPRLPRPRPRPWFPPRP, -0.156. For the sequence RRIRTRPPRLPRPRPRPYALPRP, the “shrunken log2 fold change” value was -0.686.

For the sequence RRIRERPPRLPRPRPRPHNEPRP, the “shrunken log2 fold change” value was -0.438.

As to RRIRVRPPRLPRPRPRPAVKPRP, the “shrunken log2 fold change” value came out at 0.318. For RRIRQRPPRLPRPRPRPCRFPRP the value was 0.00388. As for RRIRPRPPRLPRPRPRPKIHPRP, the “shrunken log2 fold change” value was -0.427. For RRIRGRPPRLPRPRPRPAPTPRP the value was 1.2.

For the sequence RRIRWRPPRLPRPRPRPGIYPRP, the “shrunken log2 fold change” value is -0.137.

As to RRIRDRPPRLPRPRPRPTFLPRP, the “shrunken log2 fold change” value was determined as 0.196. The result for RRIRARPPRLPRPRPRPGNVPRP reads 0.332. For RRIRYRPPRLPRPRPRPYCWPRP the value was -1.07; for RRIRCRPPRLPRPRPRPPMTPRP, 0.155. The result for RRIRWRPPRLPRPRPRPTNWPRP reads 0.206; that for RRIRDRPPRLPRPRPRPPWDPRP, 0.442; that for RRIRKRPPRLPRPRPRPLTDPRP, -0.0168. For RRIRHRPPRLPRPRPRPGLDPRP, the “shrunken log2 fold change” value worked out at 0.269. For RRIRGRPPRLPRPRPRPGRWPRP the value was 0.716. Regarding RRIRNRPPRLPRPRPRPVQIPRP, the “shrunken log2 fold change” value stood at 0.00489. On to RRIRYRPPRLPRPRPRPIKMPRP, for which the “shrunken log2 fold change” value is -0.666.
